Experimental data published in paper PMC11059233.

Molecular target: HLA-B*35:01 expressed in C1R cells (C1R.B*35:01) (human | human (endogenous in C1R))

Question: With influenza B virus PB2_(66-70) peptide as the substance, how does the IFN-γ+TNF+ CD8+ T cells (expanded with pool J) after restimulation with peptide-pulsed C1R.B*35:01; donors responding read?
Answer: Its IFN-γ+TNF+ CD8+ T cells (expanded with pool J) after restimulation with peptide-pulsed C1R.B*35:01; donors responding is 1 of 6 donors.
